In the supplement of paper PMC7877785:
± gives the uncertainty stated by the source.

Assay: self-splicing fitness, log relative to wild type (ln ratio); higher = more splicing; Tetrahymena group I intron in knt gene, E. coli kanamycin selection, DiMSum; sequences stand for … in CUCUCU…GGAGGGAAAAGUUAUCAGGCAUGCACCUGGUAGCUAGUCUUUAAACCAAUAGAUUGCAUCGGUUUAAAAGGCAAGACCGUCAAAUUGCGGGAAAGGGGUCAACAGCCGUUCAGUACCAAGUCUCAGGGGAAACUUUGAGAUGGCCUUGCAAAGGGUAUGGUAAUAAGCUGACGGACAUGGUCCUAACCACGCAGCCAAGUCCUAAGUCAACAGAUCUUCUGUUGAUAUGGAUGCAGUUCACAGACUAAAUGUCGGUCGGGGAAGAUGUAUUCUUCUCAUAAGAUAUAGUCGGACCUCUCCUUAAUGGGAGCUAGCGGAUGAAGUGAUGCAACACUGGAGCCGCUGGGAACUAAUUUGUAUGCGAAAGUAUAUUGAUUAGUUUUGGAGUACUCGUGGUCG
Outline: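 Library with all eight P1ex-region intron nucleotides randomised, intron inside the knt kanamycin-resistance gene on pET-22b(+), in E. coli BL21(DE3). Cells grew overnight at 37°C or 30°C on LB agar with or without 25 μg/mL kanamycin (plus 100 μg/mL carbenicillin, 50 μM IPTG, 0.2% rhamnose), in six replicate transformations. Pooled colonies were amplicon-sequenced on Illumina HiSeq 2500. DiMSum fitness is the error-weighted combination of wild-type-normalised replicate fold changes, kanamycin versus none.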

Sequence | self-splicing fitness (ln) (30 °C) | self-splicing fitness (ln) (37 °C)
CCUCAGCAAUAUUACGUCCA | -2.26 ± 0.14 | -3 ± 0.29
CCUCAGCAAUAUUACGUGGA | -3.84 ± 0.18 | -3.02 ± 0.2
CCUGAGCAAUAUUACGAACU | -3.4 ± 0.13 | -2.42 ± 0.17
CCUGAGCAAUAUUACGAAUA | -2.69 ± 0.38 | -1.35 ± 0.21
CCUGAGCAAUAUUACGAAUC | -3.69 ± 0.33 | -2.34 ± 0.43
CCUGAGCAAUAUUACGACAC | -2.49 ± 0.49 | -2.19 ± 0.28
CCUGAGCAAUAUUACGAGGU | -2.72 ± 0.17 | -1.99 ± 0.15
CCUGAGCAAUAUUACGAUCA | -3.05 ± 0.32 | -2.42 ± 0.24
CCUGAGCAAUAUUACGAUGU | -1.94 ± 0.084 | -1.71 ± 0.098
CCUGAGCAAUAUUACGAUUC | -3.56 ± 0.27 | 
CCUGAGCAAUAUUACGCCCA | -3.82 ± 0.47 | -2.05 ± 0.34
CCUGAGCAAUAUUACGCCUC | -2.22 ± 0.29 | -1.88 ± 0.3
CCUGAGCAAUAUUACGCCUG | -3.03 ± 0.26 | -2.47 ± 0.25
CCUGAGCAAUAUUACGGACC |  | -3.02 ± 0.43
CCUGAGCAAUAUUACGGAUC | -2.1 ± 0.17 | -2.53 ± 0.22
CCUGAGCAAUAUUACGGCGC | -4.1 ± 0.28 | 
CCUGAGCAAUAUUACGGGGU | -3.44 ± 0.24 | -3.06 ± 0.27
CCUGAGCAAUAUUACGGUCC | -1.71 ± 0.36 | -1.22 ± 0.43
CCUGAGCAAUAUUACGUAGG | -2.55 ± 0.15 | -2.24 ± 0.32
CCUGAGCAAUAUUACGUAUG | -2.38 ± 0.11 | -1.56 ± 0.11
CCUGAGCAAUAUUACGUCUG | -2.44 ± 0.14 | -1.4 ± 0.13
CCUUAGCAAUAUUACGAAGC | -3.24 ± 0.3 | -1.56 ± 0.32

Sequence | self-splicing fitness (ln) (30 °C) | self-splicing fitness (ln) (37 °C)
CCUUAGCAAUAUUACGACAU | -3.677 ± 0.028 | -2.85 ± 0.043
CCUUAGCAAUAUUACGACCG | 0.294 ± 0.11 | -0.348 ± 0.18
CCUUAGCAAUAUUACGACCU | -2.79 ± 0.2 | -1.77 ± 0.29
CCUUAGCAAUAUUACGACGU | -2.25 ± 0.18 | -1.9 ± 0.23
CCUUAGCAAUAUUACGAUUC | -3.68 ± 0.25 | -3.28 ± 0.47
CCUUAGCAAUAUUACGCUCA | -3 ± 0.21 | -1.94 ± 0.3
CCUUAGCAAUAUUACGGACU | -2.41 ± 0.19 | -2.89 ± 0.43
CCUUAGCAAUAUUACGGAUG | -1.72 ± 0.064 | -0.271 ± 0.08
CCUUAGCAAUAUUACGGAUU | -3.31 ± 0.22 | -2.38 ± 0.36
CCUUAGCAAUAUUACGGCAG | -1.83 ± 0.12 | -2.73 ± 0.2
CCUUAGCAAUAUUACGGCCA | -3.46 ± 0.41 | -1.69 ± 0.18
CCUUAGCAAUAUUACGGCCG | -1.85 ± 0.23 | -0.27 ± 0.35
CCUUAGCAAUAUUACGGGAG | -3.19 ± 0.23 | -3.67 ± 0.39
CCUUAGCAAUAUUACGGUGA | -3.63 ± 0.35 | -2.91 ± 0.27
CCUUAGCAAUAUUACGUAGC | -2.7 ± 0.18 | -1.8 ± 0.21
CCUUAGCAAUAUUACGUAGG | -2.83 ± 0.14 | -2.83 ± 0.18
CCUUAGCAAUAUUACGUAUA |  | -3.25 ± 0.37
CCUUAGCAAUAUUACGUCUC |  | -2.63 ± 0.3
CCUUAGCAAUAUUACGUGAC | -3.61 ± 0.28 | -2.68 ± 0.28
CCUUAGCAAUAUUACGUUUC | -1.94 ± 0.18 | -1.11 ± 0.46
CGAAAGCAAUAUUACGACGU | -0.439 ± 0.067 | 0.0287 ± 0.078
